Test results reported in publication PMC12416549 (2024).

Target: T1, TNFR1 (Homo sapiens, UniProt P19438)
T1 chain: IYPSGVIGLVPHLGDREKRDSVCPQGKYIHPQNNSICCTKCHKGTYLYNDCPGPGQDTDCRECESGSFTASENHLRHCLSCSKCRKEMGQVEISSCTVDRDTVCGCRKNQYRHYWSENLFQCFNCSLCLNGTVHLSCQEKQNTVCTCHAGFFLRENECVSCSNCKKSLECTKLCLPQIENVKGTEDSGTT
Experiment: yeast display SC50

Row | Binder | apparent Kd (screen) [nM]
1 | A102Q (designed binder) MTLQELLREEALRRAEAEAFRYALELLAEKFPEQKEYLLDLAEEIESQIRSLSGVDVEDVRKFLDKEWAWVKELLAEHPAELAEVEAARAARLAELRAEVEQKVAA | 0.539
2 | S47F (designed binder) MTLQELLREEALRRAEAEAFRYALELLAEKFPEQKEYLLDLAEEIEFQIRSLSGVDVEDVRKFLDKEWAWVKELLAEHPAELAEVEAARAARLAELRAEVEAKVAA | 0.49
3 | E33V (designed binder) MTLQELLREEALRRAEAEAFRYALELLAEKFPVQKEYLLDLAEEIESQIRSLSGVDVEDVRKFLDKEWAWVKELLAEHPAELAEVEAARAARLAELRAEVEAKVAA | 0.718
4 | Q34R (designed binder) MTLQELLREEALRRAEAEAFRYALELLAEKFPERKEYLLDLAEEIESQIRSLSGVDVEDVRKFLDKEWAWVKELLAEHPAELAEVEAARAARLAELRAEVEAKVAA | 0.718
5 | E18F (designed binder) MTLQELLREEALRRAEAFAFRYALELLAEKFPEQKEYLLDLAEEIESQIRSLSGVDVEDVRKFLDKEWAWVKELLAEHPAELAEVEAARAARLAELRAEVEAKVAA | 0.539
6 | I49G (designed binder) MTLQELLREEALRRAEAEAFRYALELLAEKFPEQKEYLLDLAEEIESQGRSLSGVDVEDVRKFLDKEWAWVKELLAEHPAELAEVEAARAARLAELRAEVEAKVAA | 1.05
7 | D59K (designed binder) MTLQELLREEALRRAEAEAFRYALELLAEKFPEQKEYLLDLAEEIESQIRSLSGVDVEKVRKFLDKEWAWVKELLAEHPAELAEVEAARAARLAELRAEVEAKVAA | 0.869
8 | E9Q (designed binder) MTLQELLRQEALRRAEAEAFRYALELLAEKFPEQKEYLLDLAEEIESQIRSLSGVDVEDVRKFLDKEWAWVKELLAEHPAELAEVEAARAARLAELRAEVEAKVAA | 0.49
9 | R13P (designed binder) MTLQELLREEALPRAEAEAFRYALELLAEKFPEQKEYLLDLAEEIESQIRSLSGVDVEDVRKFLDKEWAWVKELLAEHPAELAEVEAARAARLAELRAEVEAKVAA | 11.4
10 | Q48P (designed binder) MTLQELLREEALRRAEAEAFRYALELLAEKFPEQKEYLLDLAEEIESPIRSLSGVDVEDVRKFLDKEWAWVKELLAEHPAELAEVEAARAARLAELRAEVEAKVAA | 3.99
11 | L52K (designed binder) MTLQELLREEALRRAEAEAFRYALELLAEKFPEQKEYLLDLAEEIESQIRSKSGVDVEDVRKFLDKEWAWVKELLAEHPAELAEVEAARAARLAELRAEVEAKVAA | 1.05
12 | R21G (designed binder) MTLQELLREEALRRAEAEAFGYALELLAEKFPEQKEYLLDLAEEIESQIRSLSGVDVEDVRKFLDKEWAWVKELLAEHPAELAEVEAARAARLAELRAEVEAKVAA | 0.869
13 | L93W (designed binder) MTLQELLREEALRRAEAEAFRYALELLAEKFPEQKEYLLDLAEEIESQIRSLSGVDVEDVRKFLDKEWAWVKELLAEHPAELAEVEAARAARWAELRAEVEAKVAA | 0.539
14 | L26E (designed binder) MTLQELLREEALRRAEAEAFRYALEELAEKFPEQKEYLLDLAEEIESQIRSLSGVDVEDVRKFLDKEWAWVKELLAEHPAELAEVEAARAARLAELRAEVEAKVAA | 0.79
15 | Q34N (designed binder) MTLQELLREEALRRAEAEAFRYALELLAEKFPENKEYLLDLAEEIESQIRSLSGVDVEDVRKFLDKEWAWVKELLAEHPAELAEVEAARAARLAELRAEVEAKVAA | 0.539
16 | W68T (designed binder) MTLQELLREEALRRAEAEAFRYALELLAEKFPEQKEYLLDLAEEIESQIRSLSGVDVEDVRKFLDKETAWVKELLAEHPAELAEVEAARAARLAELRAEVEAKVAA | 1.54
17 | R21H (designed binder) MTLQELLREEALRRAEAEAFHYALELLAEKFPEQKEYLLDLAEEIESQIRSLSGVDVEDVRKFLDKEWAWVKELLAEHPAELAEVEAARAARLAELRAEVEAKVAA | 0.49
18 | L93D (designed binder) MTLQELLREEALRRAEAEAFRYALELLAEKFPEQKEYLLDLAEEIESQIRSLSGVDVEDVRKFLDKEWAWVKELLAEHPAELAEVEAARAARDAELRAEVEAKVAA | 0.869

Row | Binder | apparent Kd (screen) [nM]
19 | P32Y (designed binder) MTLQELLREEALRRAEAEAFRYALELLAEKFYEQKEYLLDLAEEIESQIRSLSGVDVEDVRKFLDKEWAWVKELLAEHPAELAEVEAARAARLAELRAEVEAKVAA | 0.539
20 | T2I (designed binder) MILQELLREEALRRAEAEAFRYALELLAEKFPEQKEYLLDLAEEIESQIRSLSGVDVEDVRKFLDKEWAWVKELLAEHPAELAEVEAARAARLAELRAEVEAKVAA | 0.653
21 | E5A (designed binder) MTLQALLREEALRRAEAEAFRYALELLAEKFPEQKEYLLDLAEEIESQIRSLSGVDVEDVRKFLDKEWAWVKELLAEHPAELAEVEAARAARLAELRAEVEAKVAA | 0.79
22 | A19S (designed binder) MTLQELLREEALRRAEAESFRYALELLAEKFPEQKEYLLDLAEEIESQIRSLSGVDVEDVRKFLDKEWAWVKELLAEHPAELAEVEAARAARLAELRAEVEAKVAA | 0.653
23 | L93Q (designed binder) MTLQELLREEALRRAEAEAFRYALELLAEKFPEQKEYLLDLAEEIESQIRSLSGVDVEDVRKFLDKEWAWVKELLAEHPAELAEVEAARAARQAELRAEVEAKVAA | 0.539
24 | E44W (designed binder) MTLQELLREEALRRAEAEAFRYALELLAEKFPEQKEYLLDLAEWIESQIRSLSGVDVEDVRKFLDKEWAWVKELLAEHPAELAEVEAARAARLAELRAEVEAKVAA | 0.539
25 | K30P (designed binder) MTLQELLREEALRRAEAEAFRYALELLAEPFPEQKEYLLDLAEEIESQIRSLSGVDVEDVRKFLDKEWAWVKELLAEHPAELAEVEAARAARLAELRAEVEAKVAA | 0.653
26 | P79G (designed binder) MTLQELLREEALRRAEAEAFRYALELLAEKFPEQKEYLLDLAEEIESQIRSLSGVDVEDVRKFLDKEWAWVKELLAEHGAELAEVEAARAARLAELRAEVEAKVAA | 0.956
27 | W68M (designed binder) MTLQELLREEALRRAEAEAFRYALELLAEKFPEQKEYLLDLAEEIESQIRSLSGVDVEDVRKFLDKEMAWVKELLAEHPAELAEVEAARAARLAELRAEVEAKVAA | 0.539
28 | K35M (designed binder) MTLQELLREEALRRAEAEAFRYALELLAEKFPEQMEYLLDLAEEIESQIRSLSGVDVEDVRKFLDKEWAWVKELLAEHPAELAEVEAARAARLAELRAEVEAKVAA | 0.446
29 | E101A (designed binder) MTLQELLREEALRRAEAEAFRYALELLAEKFPEQKEYLLDLAEEIESQIRSLSGVDVEDVRKFLDKEWAWVKELLAEHPAELAEVEAARAARLAELRAEVAAKVAA | 0.79
30 | L24K (designed binder) MTLQELLREEALRRAEAEAFRYAKELLAEKFPEQKEYLLDLAEEIESQIRSLSGVDVEDVRKFLDKEWAWVKELLAEHPAELAEVEAARAARLAELRAEVEAKVAA | 11.4
31 | D59P (designed binder) MTLQELLREEALRRAEAEAFRYALELLAEKFPEQKEYLLDLAEEIESQIRSLSGVDVEPVRKFLDKEWAWVKELLAEHPAELAEVEAARAARLAELRAEVEAKVAA | 0.252
32 | K72A (designed binder) MTLQELLREEALRRAEAEAFRYALELLAEKFPEQKEYLLDLAEEIESQIRSLSGVDVEDVRKFLDKEWAWVAELLAEHPAELAEVEAARAARLAELRAEVEAKVAA | 0.869
33 | P32C (designed binder) MTLQELLREEALRRAEAEAFRYALELLAEKFCEQKEYLLDLAEEIESQIRSLSGVDVEDVRKFLDKEWAWVKELLAEHPAELAEVEAARAARLAELRAEVEAKVAA | 0.539
34 | E81P (designed binder) MTLQELLREEALRRAEAEAFRYALELLAEKFPEQKEYLLDLAEEIESQIRSLSGVDVEDVRKFLDKEWAWVKELLAEHPAPLAEVEAARAARLAELRAEVEAKVAA | 0.718
35 | A11N (designed binder) MTLQELLREENLRRAEAEAFRYALELLAEKFPEQKEYLLDLAEEIESQIRSLSGVDVEDVRKFLDKEWAWVKELLAEHPAELAEVEAARAARLAELRAEVEAKVAA | 0.405
